Test results published in PMC8553545.

Target: ZBTB7A ZF1-4 (370-500) pXC2222 (Homo sapiens, UniProt O95365 370-500)
Assay: X-ray crystallography

ZBTB7A ZF1-4 (370-500) pXC2222, sequence (O95365 370-500): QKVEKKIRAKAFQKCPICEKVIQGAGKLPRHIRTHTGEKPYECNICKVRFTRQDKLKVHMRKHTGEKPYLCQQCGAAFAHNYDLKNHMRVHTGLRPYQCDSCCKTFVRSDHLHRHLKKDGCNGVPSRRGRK

Row | Binder | binding result
1 | 7N5S oligo (dsDNA) DNA 1: GGGGCCCCTTCCCCA DNA 2: CTGGGGAAGGGGCCC | binds
2 | 7N5T oligo (dsDNA) DNA 1: AGGCCCCTTCCCCAC DNA 2: TGTGGGGAAGGGGCC | binds
